The values that follow come from paper PMC3673938, “Two Distinct Calmodulin Binding Sites in the Third Intracellular Loop and Carboxyl Tail of Angiotensin II (AT1A) Receptor” (PLoS ONE, 2013).

Test [1] concerns CaM in rat brain lysates. Kind of test: GST-fusion protein pull-down from rat brain lysates. It counts as binding. To be noted: 50 pmol GST-fusion protein, 500 µg rat brain lysates, 20 mM Tris-HCl, 70 mM NaCl, pH 7.5; Ca2+ dependent; repeated five times. How it is done:
(§1) GST-fusion proteins were expressed in E. coli BL21 strain cells, and purified by affinity chromatography using immobilized glutathione sepharose 4B beads. Proteins were eluted by reduced glutathione in 50 mM Tris-HCl buffer (pH 8.0), and then concentrated with Centricon filters with 3 kDa MW cut-off. The eluted proteins were either used immediately or stored at −80°C for future use. For GST-fusion protein pull-down assays, fusion proteins were incubated with either cell lysates or purified protein(s) at 4°C for 3 hours, following which glutathione-sepharose 4B beads were added and incubation continued at 4°C for 1 hour. The beads were then recovered by brief centrifugation, followed by 4 washes with the corresponding incubation buffer. The fusion proteins and the proteins to which they were bound were then separated by SDS-PAGE, and identified by staining with Coomassie blue or by immunoblot.
(§2) Figure 1 Interactions of the i3 loop and carboxyl tail of the AT1A receptor with CaM. A, Construction of GST-fusion proteins. Upper panel illustrates a schematic structure of the AT1A receptor and constructs of GST-fusion proteins of the i3 loop and carboxyl tail of the receptor. The numbers represent positions of amino acids in the receptor. […]

The test system of test [2] is G protein βγ subunits. Nature of the test: GST-fusion protein pull-down of G protein βγ subunits, with or without CaM. To be noted: 2 pmol GST-fusion protein, 2 pmol Gβγ, CaM pre-incubated 30 minutes, 20 mM Tris-HCl, 70 mM NaCl, 0.1 mM CaCl2, pH 7.5; 4 or 5 experiments. The test is classed as binding, bovine. The method, then:
as §1
Figure 7 Effect of CaM on G protein βγ subunit interaction with wild ATi3 or ATct. A. Interaction of G protein βγ subunits and ATi3 or ATct. 50 pmol of GST-ATi3(213–242) or GST-ATct(297–359) were incubated with different amounts of G protein Gβγ subunits in a buffer containing 20 mM Tris-HCl and 70 mM NaCl (pH 7.5). Interactions were assessed by GST-fusion protein pull-down assay, and blots were probed with a specific antibody against Gβ subunits (upper panel). 1 pmol of Gβγ subunit was interacted with different amounts of GST-ATi3(213–242) and GST-ATct(297–359). Interaction was assessed by immunoblot against Gβ subunits (lower panel). B. CaM inhibits the interaction between G protein Gβγ subunits and ATi3 or ATct. 2 pmol of GST-ATi3(213–242) or GST-ATct(297–359) were incubated with different concentrations of pure bovine brain CaM for 30 minutes in a buffer (20 mM Tris-HCl and 70 mM NaCl with 0.1 mM CaCl2, pH 7.5) following which 2 pmol of Gβγ subunits were added and incubated for 1 hour. GST-fusion proteins and their interacting proteins were pulled down by gluthathione-sepharose 4B beads, and subjected to immunoblot. Blots were probed with a specific antibody against Gβ subunits. The summary graph represents means ± S.E. from four independent experiments. C. Effects of CaM on the interactions between G protein βγ subunits and mutated ATi3 and ATct. The method is same as the described in the Figure 7B, except that we used mutated GST-fusion proteins, GST-ATi3(213–242)W219A, ATct(297–359)F309A, and ATct(297–359)F313A. The summary graph represents mean ± S.E. from 4 or 5 independent experiments.

The test system of test [3] is purified bovine brain CaM. Nature of the test: GST-fusion protein pull-down with purified bovine brain CaM. The test is classed as binding. To be noted: 50 pmol GST-fusion protein, 50 pmol purified bovine CaM, 100 mM Tris-HCl pH 7.5; Ca2+ dependent (0.1 mM CaCl2 vs 1 mM EGTA); repeated five times. The method, then:
as §1, §2

Where a chain is given by its changes, count along the chain named. Numbers in names are those of the source.

B1: GST-ATct(297–359): GST fused to the carboxyl terminal tail (amino acids 297 to 359) of the AT1A receptor (protein, UniProt P25095 297-359, looked up, fragment)
chain: LNPLFYGFLGKKFKKYFLQLLKYIPPKAKSHSSLSTKMSTLSYRPSDNMSSSAKKPASCFEVE
modifications: carboxyl tail GST fusion
notes: GST fused to the carboxyl terminal tail (amino acids 297 to 359) of the AT1A receptor
Turning to B1, the “association with CaM from rat brain lysates (pull-down, in words)” value in test [1] is on record as “associated”. Moreover, in test [2], the “Gβγ binding to GST-fusion protein in the presence of 2 pmol of CaM” value is reported as 73% and the “Gβγ binding to GST-fusion protein in the presence of 10 pmol of CaM” value is 34%. The “interaction with purified CaM (pull-down, in words)” value in test [3] was “associated”.

B2: GSTATct(F313A): F313A mutant of GST-ATct(297–359) (protein, UniProt P30556 297-359, looked up, fragment F313A)
chain: B1 chain with K15R, F17A, S33N, M49V, A53T, S58P
modifications: GST fusion
For the molecule B2, in test [2], the “Gβγ binding to GST-fusion protein in the presence of 2 pmol of CaM” value worked out at 99% and the “Gβγ binding to GST-fusion protein in the presence of 10 pmol of CaM” value turned out to be 83%.
